Assay results from patent US20260193347A1 (UNIVERSITY OF FLORIDA RESEARCH FOUNDATION, published 2026).

How the values were obtained:
[1] = target: T1, Venus-tagged full length GPR158 (mGlyR) transiently expressed on HEK293 cells (human, UniProt Q5T848 24-1215); assay: flow cytometry titration on GPR158-transfected HEK293 cells
T1 construct: This is the flow cytometry target; not shown: Venus tag
T1 sequence: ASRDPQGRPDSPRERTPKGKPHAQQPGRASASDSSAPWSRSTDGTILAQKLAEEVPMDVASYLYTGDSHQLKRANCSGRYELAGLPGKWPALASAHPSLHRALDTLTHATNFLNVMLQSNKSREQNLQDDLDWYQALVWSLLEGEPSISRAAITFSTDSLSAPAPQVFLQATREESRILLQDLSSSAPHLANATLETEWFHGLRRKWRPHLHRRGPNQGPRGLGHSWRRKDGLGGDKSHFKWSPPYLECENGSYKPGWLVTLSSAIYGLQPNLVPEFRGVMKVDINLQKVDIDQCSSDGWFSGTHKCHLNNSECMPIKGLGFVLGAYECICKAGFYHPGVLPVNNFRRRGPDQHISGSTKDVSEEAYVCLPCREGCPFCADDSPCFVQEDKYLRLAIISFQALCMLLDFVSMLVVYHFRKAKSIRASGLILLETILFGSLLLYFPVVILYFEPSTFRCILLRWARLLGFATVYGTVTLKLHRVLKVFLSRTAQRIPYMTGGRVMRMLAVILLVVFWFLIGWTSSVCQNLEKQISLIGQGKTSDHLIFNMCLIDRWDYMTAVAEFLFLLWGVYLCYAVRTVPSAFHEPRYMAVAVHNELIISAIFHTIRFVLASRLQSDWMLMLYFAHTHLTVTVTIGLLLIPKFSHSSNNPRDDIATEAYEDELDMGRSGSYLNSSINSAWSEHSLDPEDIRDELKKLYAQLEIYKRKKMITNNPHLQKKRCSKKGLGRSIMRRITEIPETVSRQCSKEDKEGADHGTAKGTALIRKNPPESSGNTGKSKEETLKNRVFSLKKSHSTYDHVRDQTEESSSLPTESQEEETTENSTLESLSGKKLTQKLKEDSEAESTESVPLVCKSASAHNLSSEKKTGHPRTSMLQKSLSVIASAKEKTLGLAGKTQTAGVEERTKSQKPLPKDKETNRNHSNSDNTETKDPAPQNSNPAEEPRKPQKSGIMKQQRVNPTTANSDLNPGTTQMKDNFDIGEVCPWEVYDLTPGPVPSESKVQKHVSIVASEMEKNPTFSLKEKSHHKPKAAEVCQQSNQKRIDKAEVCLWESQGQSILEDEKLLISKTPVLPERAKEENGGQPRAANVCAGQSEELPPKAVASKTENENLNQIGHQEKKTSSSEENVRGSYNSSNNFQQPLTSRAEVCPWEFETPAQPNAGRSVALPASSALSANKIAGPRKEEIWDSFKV

[2] = target: T2, mGlyR (GPR158) co-expressed in HEK293FT cells in the BRET-based GAP assay (human, UniProt Q5T848 24-1215); assay: cell-based or functional assay
T2 sequence: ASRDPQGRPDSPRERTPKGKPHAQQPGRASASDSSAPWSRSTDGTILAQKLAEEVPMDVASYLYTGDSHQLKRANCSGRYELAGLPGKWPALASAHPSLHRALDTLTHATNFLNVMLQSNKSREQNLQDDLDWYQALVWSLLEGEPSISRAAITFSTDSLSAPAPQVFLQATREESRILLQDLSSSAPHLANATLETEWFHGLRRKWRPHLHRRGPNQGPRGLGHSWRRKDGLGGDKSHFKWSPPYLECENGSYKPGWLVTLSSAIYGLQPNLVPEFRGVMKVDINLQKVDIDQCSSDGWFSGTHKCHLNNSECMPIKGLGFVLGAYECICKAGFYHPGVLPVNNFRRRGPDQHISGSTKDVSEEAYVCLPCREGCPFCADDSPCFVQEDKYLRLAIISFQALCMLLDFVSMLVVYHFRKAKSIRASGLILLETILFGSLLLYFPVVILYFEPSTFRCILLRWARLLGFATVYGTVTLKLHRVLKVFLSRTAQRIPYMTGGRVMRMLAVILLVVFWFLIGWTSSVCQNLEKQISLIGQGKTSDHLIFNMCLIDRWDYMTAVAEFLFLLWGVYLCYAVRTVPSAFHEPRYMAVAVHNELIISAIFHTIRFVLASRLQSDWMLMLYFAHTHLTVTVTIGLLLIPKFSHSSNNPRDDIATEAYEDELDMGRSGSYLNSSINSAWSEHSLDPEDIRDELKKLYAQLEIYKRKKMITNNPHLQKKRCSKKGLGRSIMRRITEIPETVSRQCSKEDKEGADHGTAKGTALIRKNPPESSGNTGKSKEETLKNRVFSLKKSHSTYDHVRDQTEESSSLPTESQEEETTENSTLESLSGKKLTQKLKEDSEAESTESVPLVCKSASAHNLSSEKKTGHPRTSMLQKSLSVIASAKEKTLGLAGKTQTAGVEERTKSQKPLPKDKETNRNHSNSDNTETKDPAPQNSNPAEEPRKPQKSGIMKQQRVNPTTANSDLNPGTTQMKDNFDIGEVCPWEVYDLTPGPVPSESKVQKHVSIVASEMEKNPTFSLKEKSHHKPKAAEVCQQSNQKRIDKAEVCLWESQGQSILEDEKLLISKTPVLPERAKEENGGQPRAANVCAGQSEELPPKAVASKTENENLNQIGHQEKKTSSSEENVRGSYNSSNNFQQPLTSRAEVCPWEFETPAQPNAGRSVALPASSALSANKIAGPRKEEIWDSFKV

[3] = target: T1, Venus-tagged full length GPR158 (mGlyR) …; assay: flow cytometry, % of positive cells against Log [Nanobody] (M), cells expressing mGlyR, n=3, detection with anti-myc-APC
Procedure: Error bars are SEM values (n=3 independent experiments).
HEK293FT cells were cultured in 6 well plates at the density of 1.10⁶ per well and transfected with 2 μg of cDNA of mGlyR or empty pcDNA3.1+ in control experiments, using Metafectene Pro. 48 h after transfection, cells were mechanically detached pipetting up-down, washed in PBS supplemented with 0.1% BSA, counted and incubated in PBS-0.1% BSA for 1 h at 4° C. under rotation. […] After 3 washes, cells were analyzed in LSR-II BD flow cytometer. Gating strategy to sort individual cells to debris and doublets was used.

B1: llama nanobody Nb20 (Nanobody-20), purified recombinant, myc- and His-tagged (VHH, not shown: small tags and cut ends)
VHH: EVQLQESGGGLVQAGGSLRLSCAASGSIGNIYIMGWYRQTPGPQRELVATIRTVRWTKYEDYADSVKGRFTISDDDAKNTVYLQMNSLKPEDTAVYYCNYKDYNAPSDGYWGQGTQVTVSS
notes: Expressed in E. coli BL21 DE3 from pET28a and purified on Ni-IDA; Detected by an anti-myc-APC antibody in flow cytometry; The two passages disagree on where the tags sit; also called clone number 20
With B1 the EC50 [1] was ~10 nM, the “IC50, dose-response of changes in GAP activity (BRET-based GAP assay)” value [2] was ~6 nM and the “IC50, inhibition of GAP activity of GPR158 via RGS7/Gβ5 (BRET-based GAP assay)” value [2] was 5.77 nM. For the same binder, the EC50 [3] was 9.9 nM.
